Data on two molecules can be found in US20160024208A1 (Regeneron, published 2016).

For assay [1], the target named is T1, mouse Nav 1.7 in DRG neurons of wild type (Scn9a +/+) mice (mouse, UniProt Q62205 1-1984).
T1 construct: whole, on cells
Kind of assay: immunocytochemistry on cultured DRG neurons, antibody 66 nM. As for the experimental part:
Briefly, lumbar DRGs were harvested from Scn9a^{hu/+}, Scn9a^{hu3-1/hu3-1} and Scn9a^{+/+} mice. After dissociation, cells were plated at a density of 5.5×10⁴ cells/well on 96 well plates treated with poly-DL-ornithine (0.1 mg/ml) and laminin (5 μg/ml) followed by incubation at 37° C. in 96.5% air and 3.5% CO₂. Neurons were maintained in culture in DMEM supplemented with 50 ng/ml nerve growth factor, 100 U/ml penicillin/streptomycin, MEM vitamins, and 10% heat-inactivated fetal calf serum.
After 3 to 8 days in culture, neurons were fixed in 4% PFA and 4% sucrose in PBS for 30 minutes, and permeabilized in 10% NGS and 0.1% Triton X-100. Neurons were then incubated overnight at 4° C. with anti-Naᵥ 1.7 antibodies at 66 nM (1 μg). The next day, neurons were incubated in 1:400 dilution of anti-human Alexa Fluor® 594 (Invitrogen) conjugated secondary antibody for 1 h at RT. Images were taken using a fluorescent microscope.

The target of assay [2] is T2, C-Term Biotin Nav1.7 (3-3) peptide, mouse (mouse, C-terminal biotin attached via a G4S linker).
T2 construct: Synthetic peptide; also called Mouse Nav1.7 3-3 C-term biotin
T2 peptide: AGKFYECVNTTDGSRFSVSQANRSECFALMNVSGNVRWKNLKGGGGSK
The assay can be described thus: SPR, captured antibody, peptide analyte. The essentials:
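Biacore SPR: antibody captured via Fc on anti-Fc surface, Nav1.7 loop peptides injected as analyte at several concentrations. Double-referenced sensorgrams globally fitted to a 1:1 model; KD = kd/ka, t1/2 = ln2/kd.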

T1 sequence (Q62205 whole entry): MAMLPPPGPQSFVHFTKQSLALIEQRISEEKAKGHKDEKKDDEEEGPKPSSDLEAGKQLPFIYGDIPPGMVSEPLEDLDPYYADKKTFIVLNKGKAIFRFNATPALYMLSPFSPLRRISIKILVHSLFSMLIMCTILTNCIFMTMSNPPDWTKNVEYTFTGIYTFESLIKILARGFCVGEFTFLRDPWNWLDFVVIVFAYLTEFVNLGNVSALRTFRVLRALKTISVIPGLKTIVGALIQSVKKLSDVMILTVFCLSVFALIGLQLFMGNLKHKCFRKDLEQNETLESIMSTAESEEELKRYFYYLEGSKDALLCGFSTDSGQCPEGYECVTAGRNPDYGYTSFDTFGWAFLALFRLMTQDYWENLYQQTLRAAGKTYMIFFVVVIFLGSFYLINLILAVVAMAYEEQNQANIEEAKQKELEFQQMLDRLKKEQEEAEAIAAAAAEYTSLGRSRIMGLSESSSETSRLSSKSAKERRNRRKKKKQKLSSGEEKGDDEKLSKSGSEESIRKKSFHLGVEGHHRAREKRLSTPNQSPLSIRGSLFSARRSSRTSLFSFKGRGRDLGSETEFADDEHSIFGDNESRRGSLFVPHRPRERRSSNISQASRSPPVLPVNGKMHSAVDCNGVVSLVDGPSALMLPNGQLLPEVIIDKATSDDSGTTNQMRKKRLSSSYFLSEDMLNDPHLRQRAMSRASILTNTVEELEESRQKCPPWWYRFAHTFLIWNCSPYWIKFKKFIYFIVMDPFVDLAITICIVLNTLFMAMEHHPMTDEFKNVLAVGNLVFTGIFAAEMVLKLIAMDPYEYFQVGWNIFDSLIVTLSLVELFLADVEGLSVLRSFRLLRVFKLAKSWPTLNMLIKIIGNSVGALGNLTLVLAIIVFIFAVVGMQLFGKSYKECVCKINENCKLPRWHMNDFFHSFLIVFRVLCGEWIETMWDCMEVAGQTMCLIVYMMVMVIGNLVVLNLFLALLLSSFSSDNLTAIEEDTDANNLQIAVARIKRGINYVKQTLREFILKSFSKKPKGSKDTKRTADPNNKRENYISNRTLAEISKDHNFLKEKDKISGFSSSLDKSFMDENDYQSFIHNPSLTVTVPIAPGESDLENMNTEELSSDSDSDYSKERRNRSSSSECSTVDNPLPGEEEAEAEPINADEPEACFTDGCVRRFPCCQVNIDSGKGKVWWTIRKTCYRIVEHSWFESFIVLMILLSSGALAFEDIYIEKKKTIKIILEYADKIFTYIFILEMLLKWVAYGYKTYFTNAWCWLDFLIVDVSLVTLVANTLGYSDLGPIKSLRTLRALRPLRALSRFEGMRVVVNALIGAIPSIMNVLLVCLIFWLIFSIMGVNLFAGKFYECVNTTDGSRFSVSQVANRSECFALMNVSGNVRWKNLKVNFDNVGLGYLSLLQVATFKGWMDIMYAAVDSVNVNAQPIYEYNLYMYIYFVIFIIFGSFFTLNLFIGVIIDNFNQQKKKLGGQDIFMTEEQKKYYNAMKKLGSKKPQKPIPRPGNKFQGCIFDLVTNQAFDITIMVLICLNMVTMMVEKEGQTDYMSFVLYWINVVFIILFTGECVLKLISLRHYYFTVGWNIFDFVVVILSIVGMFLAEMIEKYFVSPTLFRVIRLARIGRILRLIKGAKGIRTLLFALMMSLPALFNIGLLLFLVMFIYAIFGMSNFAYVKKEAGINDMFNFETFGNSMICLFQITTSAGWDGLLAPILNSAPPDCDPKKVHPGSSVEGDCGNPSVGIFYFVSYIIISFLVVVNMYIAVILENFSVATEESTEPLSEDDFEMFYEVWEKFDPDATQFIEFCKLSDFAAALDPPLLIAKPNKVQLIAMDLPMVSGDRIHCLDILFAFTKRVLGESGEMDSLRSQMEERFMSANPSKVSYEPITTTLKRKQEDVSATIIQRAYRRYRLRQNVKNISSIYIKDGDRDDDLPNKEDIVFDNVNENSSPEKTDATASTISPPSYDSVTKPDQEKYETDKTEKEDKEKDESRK

B1: H1H1006B (antibody, V domains shown)
VH: EVQLVESGPGLVKSSETLSLKCTVSGGSISSSGYYWGWIRQPPGKGLEWIGSIHRSGSTFYNPSLKSRVTISVDTSKSQFSLRLTSVTAADTSVYFCGRHGRDYYYGMDVWGQGTTVTVSS
VL: DIQMTQSPSSVSASVGDRVTITCRSSQDINNWLVWYQQKPGKAPKVLIYGASRLQSGVPSRFSGSGSGTDFTLTISSLQPEDFATYYCQQANSFPLTFGGGTKVEIKR
notes: Fully human antibody; also called H4H1006B-1
For B1, the binding result in assay [1] was “binds”.

B2: H1M852N (antibody, V domains shown)
VH: QVQLVESGGGVVQPGRSLTLSCAASGFMFNRFGMHWVRQAPGKGLDWVAVIWYDGSNKYYADSVKGRFTISRDNSKNTLYLQVNSLRAEDTAVYYCAREGTPHYYDSSGLDYWGQGTLVTVSS
VL: AIQMTQSPSSLSAYVGDRVTITCRASQDIRNDLGWYQQKPGKAPNLLIYDISSLQSGVPSRFSGSGSGTDFTLTISSLQPEDFATYYCLQDYNYPLTFGGGTKVEIK
notes: constant region may differ; also called H4H852N
For B2, in assay [2], the binding result was “no binding”.
